Data reported in CN112778416A (KANGYUAN MEDICAL TECH DALIAN CO LTD, dated 2021).

B1: 纳米抗体CNb20-2 (VHH)
VHH: QVQLVESAGGLVQPGGSLRLSCAASGRFTGGSPMGWYRQAPGKRRELVADIMGRGGSNTYADSVKGRFTISRDNAKNTVYLQMNSLKPEDTAVYYCAEAERVSGLLLEVVAEPRGDDYWGQGTQVTVSS
B2: 纳米抗体CNb20-1 (VHH)
VHH: QVQLQESGGGSVQAGGSLRLSCAASSGILEIFNAMAWFRQAPGKEREWVARIMGSPYGSTEYYADSVKGRFTFSQDNAKNTVYLQMDSLEPEDTATYYCHSAGYDPRGDDYWGQGTQVTVSS
B3: 人源化纳米抗体hCNb20-1 (VHH)
VHH: EVQLVESGGGSVQAGGSLRLSCAASSGILEIFNAMSWFRQAPGKEREWVSAIMGSPYGSTEYYADSVKGRFTFSQDNAKNTVYLQMDSLRPEDTATYYCHSAGYDPRGDDYWGQGTLVTVSS
notes: Humanised variant of CNb20-1, purified on Ni Sepharose
B4: 人源化二价多肽hbvCNb20-1 (VHH)
chain: EVQLVESGGGSVQAGGSLRLSCAASSGILEIFNAMSWFRQAPGKEREWVSAIMGSPYGSTEYYADSVKGRFTFSQDNAKNTVYLQMDSLRPEDTATYYCHSAGYDPRGDDYWGQGTLVTVSSGGGGSGGGGSGGGGSEVQLVESGGGSVQAGGSLRLSCAASSGILEIFNAMSWFRQAPGKEREWVSAIMGSPYGSTEYYADSVKGRFTFSQDNAKNTVYLQMDSLRPEDTATYYCHSAGYDPRGDDYWGQGTLVTVSS

What was measured:
[1] = molecular target: T1, 白介素-6 (IL-6) (UniProt P05231 30-212); test: SPR, IL-6 amine-coupled to CM5 chip, nanobody injected
T1 construct: also called Interleukin-6; 抗原IL-6

[2] = molecular target: T1, 白介素-6 (IL-6); test: SPR, IL-6 amine-coupled to CM5 chip, polypeptide injected

| Binder | Kd [1] | Kd [2] | koff [2] |
| --- | --- | --- | --- |
| B1 | 0.0423 nM |  |  |
| B2 | 0.0111 nM |  |  |
| B3 | 0.0995 nM |  |  |
| B4 |  | 0.0807 nM | 0.000184 s⁻¹ |
